In one assay the target is T1, GST-OGT^WT (UniProt O15294-3 1-1036).
T1 construct: OGT, wild type; The printed Thr444 fits the 1036-residue isoform
T1 sequence (looked up): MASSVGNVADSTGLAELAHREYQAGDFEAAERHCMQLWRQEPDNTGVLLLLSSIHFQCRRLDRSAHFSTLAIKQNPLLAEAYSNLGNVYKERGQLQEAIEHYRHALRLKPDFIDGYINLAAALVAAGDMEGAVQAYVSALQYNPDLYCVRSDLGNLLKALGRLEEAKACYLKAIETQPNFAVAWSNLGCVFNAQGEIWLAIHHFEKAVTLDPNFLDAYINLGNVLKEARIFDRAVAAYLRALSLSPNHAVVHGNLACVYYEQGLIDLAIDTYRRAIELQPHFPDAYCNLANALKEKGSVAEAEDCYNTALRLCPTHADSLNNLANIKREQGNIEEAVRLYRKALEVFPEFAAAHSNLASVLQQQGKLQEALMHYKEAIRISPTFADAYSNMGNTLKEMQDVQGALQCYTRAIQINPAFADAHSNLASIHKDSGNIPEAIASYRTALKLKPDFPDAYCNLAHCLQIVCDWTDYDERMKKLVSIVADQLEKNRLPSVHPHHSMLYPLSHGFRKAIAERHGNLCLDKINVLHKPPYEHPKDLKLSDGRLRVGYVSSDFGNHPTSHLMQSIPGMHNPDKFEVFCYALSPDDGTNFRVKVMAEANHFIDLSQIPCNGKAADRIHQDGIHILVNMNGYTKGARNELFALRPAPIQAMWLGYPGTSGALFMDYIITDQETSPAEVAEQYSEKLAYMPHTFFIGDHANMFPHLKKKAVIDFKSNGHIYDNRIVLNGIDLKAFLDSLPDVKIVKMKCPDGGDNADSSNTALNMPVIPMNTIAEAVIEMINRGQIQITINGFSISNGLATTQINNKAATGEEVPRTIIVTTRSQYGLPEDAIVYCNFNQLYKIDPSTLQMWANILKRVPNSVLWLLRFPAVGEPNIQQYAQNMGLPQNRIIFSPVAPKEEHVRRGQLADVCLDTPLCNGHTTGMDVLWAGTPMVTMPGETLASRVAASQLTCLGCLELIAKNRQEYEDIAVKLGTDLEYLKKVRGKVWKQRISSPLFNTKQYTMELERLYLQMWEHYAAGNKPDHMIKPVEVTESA
Kind of assay: pull-down; in vitro GST pull-down; GST-OGT^WT or GST-OGT^T444E with His-NRF2. The note with it: both partners purified.

The next assay deals with T2, GST-OGT^T444E (UniProt O15294-3 1-1036, T444E).
T2 construct: OGT with T444E (mimics phosphorylation at Thr444); The printed Thr444 fits the 1036-residue isoform
T2 sequence (looked up): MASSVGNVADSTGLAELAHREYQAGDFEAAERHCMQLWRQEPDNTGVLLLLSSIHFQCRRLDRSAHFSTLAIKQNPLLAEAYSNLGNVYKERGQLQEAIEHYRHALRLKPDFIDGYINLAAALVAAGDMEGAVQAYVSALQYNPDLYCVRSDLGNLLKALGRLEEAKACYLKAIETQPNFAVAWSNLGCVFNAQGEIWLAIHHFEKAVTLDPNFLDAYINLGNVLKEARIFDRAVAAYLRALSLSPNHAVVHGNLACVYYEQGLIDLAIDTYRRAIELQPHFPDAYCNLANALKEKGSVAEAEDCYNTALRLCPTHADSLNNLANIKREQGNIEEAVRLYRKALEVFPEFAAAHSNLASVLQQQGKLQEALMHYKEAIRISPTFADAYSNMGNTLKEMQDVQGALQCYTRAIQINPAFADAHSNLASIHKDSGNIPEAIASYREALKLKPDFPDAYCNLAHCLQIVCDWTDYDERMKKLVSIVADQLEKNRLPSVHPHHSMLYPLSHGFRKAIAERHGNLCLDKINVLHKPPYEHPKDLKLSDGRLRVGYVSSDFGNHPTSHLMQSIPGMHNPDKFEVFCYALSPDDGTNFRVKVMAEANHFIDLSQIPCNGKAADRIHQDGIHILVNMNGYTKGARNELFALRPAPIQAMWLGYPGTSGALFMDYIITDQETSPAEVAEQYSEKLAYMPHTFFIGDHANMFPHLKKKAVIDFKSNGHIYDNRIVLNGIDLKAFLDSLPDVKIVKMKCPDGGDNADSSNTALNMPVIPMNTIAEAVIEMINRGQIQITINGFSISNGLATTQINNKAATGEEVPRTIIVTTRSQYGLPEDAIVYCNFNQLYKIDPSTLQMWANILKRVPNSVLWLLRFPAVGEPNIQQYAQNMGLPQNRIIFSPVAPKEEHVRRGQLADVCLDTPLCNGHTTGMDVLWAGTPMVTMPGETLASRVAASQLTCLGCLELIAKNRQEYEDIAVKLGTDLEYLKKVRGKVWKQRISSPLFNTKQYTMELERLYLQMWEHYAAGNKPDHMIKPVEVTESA
The assay is described as above. The settings on record: both partners purified.

B1: His-NRF2 (natural protein, UniProt Q16236 1-605, looked up)
chain: MMDLELPPPGLPSQQDMDLIDILWRQDIDLGVSREVFDFSQRRKEYELEKQKKLEKERQEQLQKEQEKAFFAQLQLDEETGEFLPIQPAQHIQSETSGSANYSQVAHIPKSDALYFDDCMQLLAQTFPFVDDNEVSSATFQSLVPDIPGHIESPVFIATNQAQSPETSVAQVAPVDLDGMQQDIEQVWEELLSIPELQCLNIENDKLVETTMVPSPEAKLTEVDNYHFYSSIPSMEKEVGNCSPHFLNAFEDSFSSILSTEDPNQLTVNSLNSDATVNTDFGDEFYSAFIAEPSISNSMPSPATLSHSLSELLNGPIDVSDLSLCKAFNQNHPESTAEFNDSDSGISLNTSPSVASPEHSVESSSYGDTLLGLSDSEVEELDSAPGSVKQNGPKTPVHSSGDMVQPLSPSQGQSTHVHDAQCENTPEKELPVSPGHRKTPFTKDKHSSRLEAHLTRDELRAKALHIPFPVEKIINLPVVDFNEMMSKEQFNEAQLALIRDIRRRGKNKVAAQNCRKRKLENIVELEQDLDHLKDEKEKLLKEKGENDKSLHLLKKQLSTLYLEVFSMLRDEDGKPYSPSEYSLQQTRDGNVFLVPKSKKPDVKKN
notes: NRF2; Construct details are said to be in the Supplementary Information
Turning to B1, the binding result with GST-OGT^WT and in the assay with GST-OGT^T444E was “binds” in each case.

Values taken from PMC11447106 (Clinical and Translational Medicine, 2024).
